{"source": "patent EP3904368A2", "biological_target": "Acetylcholine receptor on AchR-overexpressed TE671 cells", "assay": "cell-based or functional assay"}
{"substance": "Synake (peptide)", "values": [{"measurement": "IC50 value for AchR (inhibition of AchR action, TE671 cells)", "result": 75, "unit": "µM"}]}
